Measured values taken from the DeepSol protein solubility set.

Assay: soluble on expression in E. coli; label from the status in PepcDB or PDB records

Sequence | soluble on expression in E. coli
MAHHHHHHMSLNLTDAADDRSYKEMEKYTVERVAGQGTFGTVQLARDKSTGSLVAIKKVIQDPRFKNRELQIMQHLARLRHPNIVMLKNYFYTVGGEGRRNDVYLNVVMEFVPETLHRTCRNYYRRMTNPPLILVKVFMFQLLRSIACLHIPVINICHRDIKPHNVLVDEQTGELKLCDFGSAKRLAADEPNVAYICSRYYRAPELIFGNQFYTTAVDIWSVGCIFAEMLLGEPIFCGENTSGQLREIVKILGKPTKEELHKLNGSSTEINANAKATPWENVFKQPLPAEVYDLCGKIFKYVPDQRITPLDALCHPFFNELREPTTKLPSGNPLPAHLYQFTPDEVEAMTEAQREYLLKK | not soluble
MAHHHHHHMSMKGSKNMLSPLVGNIYNNVYDHKELKMKSINEQNNMGSNNYNINYVNNNNSTLSNNNHSKQNLCYNNFSSHSPSINKDSIHEEKKNNFYEQHNYIDENATHHTMEEENYKNFKNSKNYEHTIDEDVMQNEYSNIIKDNHLKKKKKKKNIHHLNNKDINNTNLNYETNEQVLIDLPKNHLLNKLTTSIIHSINPHLISEYTHEDITKRTNKISTLKKKKKKKKIEREEIYESDVDNTNGEDNTNDVDNTNDEDNTNDEDNTNDGDNEQIHYHKQFDDQIQKQKNKQNKQKKEYKEFDVYETKGYIPLSNEHKQNKSVCFLDNHVKYYTQQNNVPYEKNIIYENNLNDHQAHSYYNNTLNQFTPNSDILNYNNYINKEYIQGIYNTNNYNIKQDSVYEPNEQVMFMSPQEEKYIYMNASPNNIIRNNDMVFYSGQLDNEQMNININNNNNINNNDNNINSSSSVNDGCFNLHLNNMNNIFNTCTNTQNKQKTHKSFFCNSSAKNVINNENNVKNNKTEILIYKNDKTNNYQNNNQTKQNIQSNNHYNNNNNNNGNHINKFRFFTPTSNNVFVRTRSLTPNTYQKKKKNSFFACSPLKDINLNRQKSLPPQLYTTQDITQPIYTHDISYNLSNKNNIIQNDPYNNIQNITTTLSYPLVNSNFVHLYPYQNSNTNNQIKKIENFNVSKNYMNESSTQTSTETSSKSSKDTSLWNTQIHLLNEKIKNMKTKMENITKEKNEVNELCKMYKVIKNHINVNV | not soluble
MAHHHHHHMSQSTSLAYATLFHPSRDSATIQHSAARASAAHQQQVQQSPSITRATDGATYTAEGIAVASLSSLDTWTGFLSSQWAETVKMQLSMPSNAAPVISPSGADLISSLHSIVSRQNKVVAQPQEKLVAQRAKEEKDWEAKKQLSQSTSAEGMPGSFKNTKDEAVSSVDDNVADNAAENTQVCVLLAHLLEHARFLWARAVSQHFRVAQVRKSSSSKDTRSPKKVTADINAEAAMEEERVGLPPISLLFRCLVDGINSEEARQAIVTAGVLPASAWDSGVLGVDQLGILTVFERHVQALRTFPGIVPPLEALREYFAELHPQQLSKYYPSGALDSTLELAEAQMDAFLRFGDETEQMAALLRAGLHPSVRRLLYARALQVPLTVTDGKPMFLAQGELMTNHLRHGLARYLTCSSRQARDKVKRRFHHRYSSSKEENRVRLLQRLALDDMFISVGNSDKYFVYTDDVEVLSTAMVVDHSLPVPKMVQALKQLGRPRDLLDSYVTYLQYPETNLVQQKALPCGVAPLEGFALLLGALCNVTSDTVEQYELAAAIVAQLWSRLQGPTPELFQCCLIFESLVQQLALPAVLHATRNLQYPPLVLAMRWMLTGFADLLDAFEVLSFWDLVLSYHMREMHRRSPLSLPTGLANAAPHDTSTPCALWLLPMYAAAIFVMRAPLVEACRTAAEVDVVFATGHQLRTRSLLQGLLFG | not soluble
MAHHHHHHMSSHALSSGSAPNVSSATTGTVAQQADSLTRNLLLGIPKEGLSPDSPEAADLQAAEAFVSDIQQEILAYDIANAKAIELYAVRWWSAVPFFGRHAKRALAAESTAAAAAAAGETHESTEAAAAAVAVDGSANSSEGHGLRLSPEEAAAALQSGGAYLHRQTSQTPRGFKVERTSALDPGQLSQLAGGASGASESKAVPVPKVNTWLFRRQHPSWVPLMQRWWVPWLCCGSIVLIWTPDVWKLRTLYFCDHQYALLRQSIHKAYWWATMRPEDYAEHIAAIAAERPSRVRGTSCPFE | not soluble
MAHHHHHHMSSKKQDASAELLSELRAVIVSGGSMGTLDEQKVRSVVEKTNESYACIQSIATNPYADLTQPYYVSSVNYYRAKCLRDKRCLLTYLLWRQKQVAKAWWSVRDNLLEGSLSAAEAKYLSDYQGIMVEYMTSFDVPLDLRAYLWRPPSVRQLEVRGRCHYEFRSSVSGKTIIINIGDQLFLSFEEAEPLIQQGIVELVGH | not soluble
MAHHHHHHMSSYDAMSAVSSNGAVMPEINLHPRLMTHRPESDSYTGSARHSSRSTRAVPTNAELAYAGVTAQDGVVQQLSSRSEERGSLAGPREVSAQSNSGHRALRAITACGSIDEPLQLSEPHQGRAIRDTPREQKPQQHQSQPTRSISHGVVARNAAGAGSSREPIRPGRSSCSSTPRIPSKHNDPYAHVTSVVQEYRQSRINALEAQYRVAHTHSNTSVSQGYDTRQSQSASPRSLEARRNASAHSRASARPRDGSWRMSSVSSRTRQNSPLPRAVEEEYLRGGVPRAALDAPHIRYAEALYNMYNSSSSSARRLACMSSMSSNMTTEYVPDVAKRIPDRFKYVPPTEEERRLHREATLRALEEWRRRQCARENAHCKGSEDMAAGGAAVELRNRNPPKNQSGTRSQQPQQAGHEEAAAWALQKGFDNTSDSFSGQARDSFTPSKKCSARKAKKIRSAAEQRDDYPTNEGAGEWERPQSSVGKRSGTLISRRQNGAGLRASSRKGRKSPTESARVEDGMKLNSFREKLLFDIAPPTVSIA | not soluble
MAHHHHHHMSSYRSDVDPFKEIRVLPREAAQLRHHLSRINHALQTKYFVAAELSELALQPDRSDEFLALYKAEIYRVVAKLNMNAKKQYTVTVDPLRLTTGFEFKRGADRKDNLGTAVTAATVEGLTSPDVHAKWTASLVETSRLLAQQHAINPNCQALSSALQSTPSSQQTQGLNGGGGAAAVGSDVIGDASTCAIDSDVRKANKESFLFSTPPEFAGFAPSGASPGAP | not soluble
MAHHHHHHMSTRRLMHTMIRVGDLDRSIKFYTEALGMRLLRKWDCPEDKFTLVFLGYGTESETAVLELTYNYGQSEYKHGDAYGHIAIGVEDVNEEIARLKKMNVPIDYESEDGFMAFIVDPDGYYIELLNTERMLEKSREQMNEQGTA | soluble
MAHHHHHHMSTYVPKPSRDNVYRFFFTEGVIACKKDRMGTWTGTLGGNTFTVPCIQVMQLMRSLKSRNLIKEQYAWRHYYWTLNDEGIAYMRSYLHLAPSAMPNTQKPSSVNFEKVTEGRGRGRGRGGRGRGEGRGRGRGEGRGRGRGRGFGGERMNYRAAAATSDGEAAPAPAAE | soluble
MAHHHHHHMSVDFTSKAVDLLKRATTLDEAKEYEEAYRWYMDSIEVFMTAIKYENKNPTKKEMLKNKVRQVMERAKMIKEYLDGSKEGDSNVGNTGSTAQKTASASKKAKEEEEDKQRMRNALGGAIVRVKPNVNWSQIAGLEGAKEALKEAVILPVRFPQLFTGNRKPWKGILMYGPPGTGKSFLAKAVATEADGTFLSVSSADLMSRWLGDSEKLVRNLFEMAREAWKTDGKPAIIFIDEIDSMCSSRTDGENDALRRIKTEFLVQMQGVGHEDDGVLVLGATNIPWSLDSAVRRRFERRIYIPLPDVQARYQMFKIHIGDTPHTLTEKDWYELARMTDKYSGSDINIVVRNAMMECIRSVQVATHFKRVTGPDLKDPTRMTNNRLVPCSPGDPEGFAMTAQEITEPGLLMPLPVTMQDFVKALRTARPSVADDDITQHLKFTEEFGQEG | not soluble
MAHHHHHHMTAALNRKFDLLQKSGTCPSYLLDVLTLLVAHANETELFKQELRSAPFENAAPPLRADRGMVAAAAPQPEMGTQTVTQPEAPGTEKEVLLAAERTLRAYASDLRKINDIAMATSSKKLREMKMSNFTEMAAFRDRVVSDAVDRAREELELLRMGWLESMNTEVERAKMEVHKVGLSSQKALHKMLEGYRDYVSDGFRLLKTEPLEVMHRAMAECAFCVERLKIMEQQVVPRIEIDALCGRLKSVERVIAQMLKKRHSSGVVDDEISVVPTAGPSETGASTAAAGDDRPLGLRLRDGGNDVEGLIVTEVAPNSLASKARISPGQIISHVGDALVTRRDDFTTAMQKTGSAAKLTIYDPETAVVRILTLKP | soluble
MAHHHHHHMTEKENGNKDKRRKEKHRKHHRDRRESCNGVVNSSAAKTRPETAVAIEGADEEVENWDENRTRVDQLCQTYPNNMCNDCNNAGTRWASVNHGVFLCIRCSGIHRSLGVHVSKVKSANMDKWSAAEVHLMELIGNQRAKLLYEAHLPKDMKPMTFAESDATLQTFIQRKYQEKAFSVEAVDEKLRQYHKEARYGKKPKRNSSASRKKKANDGANDKAERSLKGEDTIKALYGSNAEVISKMSKRTGPIRGTFGVVNVGPEAYDERRKTLLEQFGFS | not soluble
